The results in this text go back to the nanobody polyreactivity screen of Harvey et al. (2022).

The data set in a line: yeast display, Sf9 membrane polyspecificity reagent, FACS + sequencing; frameworks hold sequencing errors. Summed up: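 Synthetic nanobody libraries on Saccharomyces cerevisiae BJ5465 were galactose-induced for 36–48 hours, stained 1 hour at 4 °C with 10% biotinylated, detergent-solubilized Sf9 membrane reagent and enriched on streptavidin microbeads. FACS then separated cells into low and high (top ~1%) gates by anti-HA (expression) and streptavidin (reagent binding) fluorescence. Genes were colony-PCR amplified, MiSeq 2 × 250 sequenced and CDR-length filtered. A clone's polyreactivity label is that of its gate of origin.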
Consider “QVQLVESGGGLVQAGGSLRLSCAASGRTFGWDAMGWYRQAPGKERELVAAINNSGDITYYADSVKGRFTISRDNAKNTVYLQMNSLKPEDTAVYYCAATAGYYGYPSEYDYWGQGTQVTVSS”, for which the “polyreactivity (PSR sort gate)” value is “low polyreactivity”.
The value for “QVQLVESGGGLVQAGGSLRLSCAASGRTFGWNAMGWYRQAPGKERELVAGITTSGGTTYADSVKGRFTISRDNAKNTVYLQMNSLKPEDTAVYYCAAYVIGPDQFIYDYWGQGTQVTVSS” was “low polyreactivity”; that for “QVQLVESGGGLVQAGGSLRLSCAASGRTFGWYAMGWYRQAPGKERELVAAINNSGDITYYADSVKGRFTISRDNAKNTVYLQMNSLKPEDTAVYYCAKSLPHSTSRDYWGQGTQVTVSS” was “low polyreactivity”.
Regarding “QVQLVESGGGLVQAGGSLRLSCAASGRTFGYNALGWYRQAPGKERELVAAINWSGASTYYADSVKGRFTISRDKAKNTVYLQMNSLKPEDTAVYYCAKVTRGSQYDYWGQGTQVTVSS”, the “polyreactivity (PSR sort gate)” value is on record as “low polyreactivity”.
The value for “QVQLVESGGGLVQAGGSLRLSCAASGRTFGYNAMGWYRQAPGKERELVAAISWRSGGTYYADSVKGRFTISRDNANNSVYLQMISLKPEDTAVYYCARRSPHHGRDYWGQGTQVTVSS” was “low polyreactivity”; that for “QVQLVESGGGLVQAGGSLRLSCAASGRTFGYNAMGWYRQAPGKERELVAVIRSGGSTSYADSVKGRFTISRDNAKNTVYLQMNSLKPEDTAVYYCAATGLYNVTSPYSYKYDYWGQGTQVTVSS” was “low polyreactivity”; that for “QVQLVESGGGLVQAGGSLRLSCAASGRTFGYNAMGWYRQAPGKESELVAAINWSGASTYYADSVKGRFTISRDNAKNTVYLQMNSLKAEDTAVYYCAADYSYIYGFDYWGQGTQVTVSS” was “low polyreactivity”.
The value for “QVQLVESGGGLVQAGGSLRLSCAASGRTFGYNAMGWYRQAPVKERELVAAIRTIGDSTYYADSVKGRFTISRDNAKNTVYLQMNSLKPEDTAVFYCAARKLRSRYDYWGQGTQVTVSS” was “high polyreactivity”.
Turning to “QVQLVESGGGLVQAGGSLRLSCAASGRTFGYNAMGWYSQAPGKERELVAAISYSGGRTYYADSVKGRFTISRDNAKNTVYLQMNSLKPEDTAVYYCAAKNPYKYDYWGQGTQVTVSS”, the “polyreactivity (PSR sort gate)” value is reported as “high polyreactivity”.
As to “QVQLVESGGGLVQAGGSLRLSCAASGRTFGYNVMGWYRQAPGKERELVADITSTSSTSYADSVKGRFTISRDNAKNTVYLQMNSLTPEDTAVYYCAAYYYFFRRYSWRLSGDYWGQGTQVTVSS”, the “polyreactivity (PSR sort gate)” value is on record as “low polyreactivity”.
As for “QVQLVESGGGLVQAGGSLRLSCAASGRTFGYYAMGWSRQAPGKERELVAAITYSGGRTRYADSVKGRFTISRDNAKNTVYLQMNSLKPEDTAVYYCNRVIPTQSLRDYYWGQGTQVTVSS”, the entry is “high polyreactivity”; as for “QVQLVESGGGLVQAGGSLRLSCAASGRTFGYYAMGWYRQAPGKERELVAAISWRGTSTYYADSVKGRFTISRDNAKNTVYLQMNSLKPEDTAVYYCNRYTTRYYPGGDYWGQGTQVTVSS”, “high polyreactivity”.
As for “QVQLVESGGGLVQAGGSLRLSCAASGRTFGYYAMGWYRQAPGKERELVAAITRSGDRTYYADSVKGRFTISRDNAKNTVYLQLNSLKPEDTAVYYCARYAYLISDYWGQGTQVTVSS”, the entry is “high polyreactivity”; as for “QVQLVESGGGLVQAGGSLRLSCAASGRTFGYYAMGWYRQAPGKERELVAGIRSSGGSTYYADSVKGRFTISRDNAKNTVYLQMNSLKPEDTAVYYCAARLRSYHYRYGYDYWGQGTQVTVSS”, “high polyreactivity”; as for “QVQLVESGGGLVQAGGSLRLSCAASGRTFGYYAMVWYRQAPGKERELVAAISTSGGGTYYADSVKGRFTISRDNAKNTVYLQMNSLKPEDTAVYYCNRDSRVLEGDYWGQGTQVTVSS”, “low polyreactivity”.
The value for “QVQLVESGGGLVQAGGSLRLSCAASGRTFGYYTMGWYRQAPGKERELVAAISWNGDDTYYADSVKGRFTISRDNAKNTVYLQMNSLKPEDTAVYYCAKDFLGNYYWTDVYTYGGEGDYWGQGTQVTVSS” was “low polyreactivity”; that for “QVQLVESGGGLVQAGGSLRLSCAASGRTFHAYAMGGYRQARGKARELVATISTSGTSTYYADSVKGRFTISRDNAKNTVYLQMNSLKAEDTAVYYCGKGPRQDFYFSFEYWGQGTQVTVSS” was “high polyreactivity”.
In the case of “QVQLVESGGGLVQAGGSLRLSCAASGRTFHDNAMGWYRQAPGKETELVAAISWRGGSTNYADSVKGRFTISRDNAKNTVYLQMNSLKPEDTAVYYCNRDPRKYGKLDYWGQVTQVTVSS”, the “polyreactivity (PSR sort gate)” value was “low polyreactivity”.
The value for “QVQLVESGGGLVQAGGSLRLSCAASGRTFHDYAMGWYRQAPGKERELVAAISISGVSTYYADSVKGRFTSSRDNAKNTVYLQMNSLKPVDTAVYYCAAAQDAAVYWRPGGYDYWGQGTQVTVSS” was “low polyreactivity”.
As for “QVQLVESGGGLVQAGGSLRLSCAASGRTFHFYAMGWYRQAPGKERELVASITWSAVRTYYADSVKGRFTISRDNAKNTVYLQMNSLKQVDTAVYYCAKEWDYRLMDYWGQGTQVTVSS”, the entry is “low polyreactivity”.
As for “QVQLVESGGGLVQAGGSLRLSCAASGRTFHGYAMGWYRQAPGKERELVAAINWRGGSTYYADSVKGRFTISRDNAKNTVYLQMNSLKPEDTAVYYCNKRQYSARVSRSYDYWGQGTQVTVSS”, the entry is “high polyreactivity”; as for “QVQLVESGGGLVQAGGSLRLSCAASGRTFHGYAMRWYRQAPGKDRELVAAITSSGARTYYADSVKGRFTISRDNAKNTVYLQMNSLKPEDTACYYCNAEYYSTWYRFDYWGQGTQVTVSS”, “high polyreactivity”.
As for “QVQLVESGGGLVQAGGSLRLSCAASGRTFHSYAMGWYRQAPGKERELVAVITRRGGSTYYADSVKGRFTISRDNAKNTVYLQMNSLKPEDTAVYYCNKGKSYTYDYWGQGTQVTVSS”, the “polyreactivity (PSR sort gate)” value was “high polyreactivity”.
The value for “QVQLVESGGGLVQAGGSLRLSCAASGRTFHYNVMGWYRQAPGKERELVAAITNTGGSTYYADSVKGRFTISRDNAKNTVYLQIYSLKPEDTAVYYCAAVIWGRRYGAYPYEYWGQGTQVTVSS” was “low polyreactivity”; that for “QVQLVESGGGLVQAGGSLRLSCAASGRTFIAYAMGWYRQAPGKERELVAAITSSGGSTYYADSVKGRFTISRDNAKNTVYLQMNSLKPEDTAVYYCATDIYESPYFYYSYYYWGQGTQVTVSS” was “low polyreactivity”; that for “QVQLVESGGGLVQAGGSLRLSCAASGRTFIDYGMGWYRQAPGKERELVAAISSGGSTYYADSVKGRFTISRDNAKNTVYLQMNSLKPEDTAVYYCAAPGFKYDVYAGYVLNGGGDYWGQGTQVTVSS” was “low polyreactivity”.
Regarding “QVQLVESGGGLVQAGGSLRLSCAASGRTFIGNVMGWYRQAPGKERELVAAISKSGTRTYYPDSVKGRFTISRDNAKNTVYLQMNSLKPEYTAVYYCAKDHYPRTDDFGYWGQGTQVTVSS”, the “polyreactivity (PSR sort gate)” value was “high polyreactivity”.
In the case of “QVQLVESGGGLVQAGGSLRLSCAASGRTFIGYAMGWYRQAPGKERELAAGISWSGGSTYYADSVKGRFTISRDNAKNTVYLQMNSLKPEDTAVYYCAARGRWSTEYGYWGQGTQVTVSS”, the “polyreactivity (PSR sort gate)” value is “low polyreactivity”.
As for “QVQLVESGGGLVQAGGSLRLSCAASGRTFIGYAMGWYRQAPGKERELVAAISPGGSTKYADSVKGRFTISRDNAKNTVYLQMNSLKPEDTAVYYCAASYSGRQDRYPHYDYWGQGTQVTVSS”, the “polyreactivity (PSR sort gate)” value is “low polyreactivity”.
The value for “QVQLVESGGGLVQAGGSLRLSCAASGRTFIGYAMGWYRQAPGKERELVATISVSGGSTYYADSVKGRFTISRDNAKNTVYLQMNSLKPEDTAVYYCAKAYLRYYDGPYDYWGQGTQVTVSS” was “low polyreactivity”; that for “QVQLVESGGGLVQAGGSLRLSCAASGRTFIINTMGWYRQAPGTERQLVAAISKNGATTNYADSVKGRFTISRDNAKNTVYLQMNSLKPVDTAVYYCNARYSGYLRLDYWGQGTQVTVSS” was “low polyreactivity”; that for “QVQLVESGGGLVQAGGSLRLSCAASGRTFIKYAMGWYRQAPGKERELVAAISRNGGSTNYADSVKGRFTISRDNAKNTVYLHMNSLKPEDTAVYYCAAVGTVSRTVGYNYWGQGTQVTVSS” was “high polyreactivity”.
Take “QVQLVESGGGLVQAGGSLRLSCAASGRTFIKYAMGWYRQAPGKERELVAAITYSAGSTSYADSVKGRFTISRDNAKNTVYLQMNRLKPEDTAVYYCARRTRSYGYRSDYYYWGQGTQVTVSS”: the “polyreactivity (PSR sort gate)” value was “low polyreactivity”.
The value for “QVQLVESGGGLVQAGGSLRLSCAASGRTFINYAMGWYRQAPGKERELVAAITTGGRTNYADSVKGRFTISRDNAKNTVYLQMNILKPEDTAVYYCAADRYYWGRYTLNYWGQGTLVTVSS” was “low polyreactivity”; that for “QVQLVESGGGLVQAGGSLRLSCAASGRTFIPYAMGCYRPAPGKERELVAAIRSGASTNYADSVKGRFTISRDNAKITVYLQMNSLNPEDTAVYYCNADFLGGTWFDYWGQGTQVTVSS” was “high polyreactivity”.
As for “QVQLVESGGGLVQAGGSLRLSCAASGRTFIPYAMGWYRQAPGKVRELVAAIRNGGSTNYADSVKGRFTISRDNAKNTVYLQMNSLKPEATAVYYCNADLPVYVDYINGGYGYWGQGTQVTVSS”, the entry is “low polyreactivity”.
On to “QVQLVESGGGLVQAGGSLRLSCAASGRTFIRYAMGWYRQAPGKERELVAAISWSGDRTYYADSVKGRFTISRDNAKNTVYLQMNSLKPEDTAVYYCNAYRYLRTATFLKFDYWGQGTQVTVSS”, for which the “polyreactivity (PSR sort gate)” value is recorded as “high polyreactivity”.
For the sequence “QVQLVESGGGLVQAGGSLRLSCAASGRTFIVYPMGWYRQAPGKERELVAAISKRGGSTYYADSVKGRFTISRDNAKNPVYLQMNRLKPDDTAVYYCNAALSVELGYAYWGQGTQVTVSS”, the “polyreactivity (PSR sort gate)” value is given as “high polyreactivity”.
The value for “QVQLVESGGGLVQAGGSLRLSCAASGRTFIYYAMGWYRPAPGKERELVAAITWTGGRTYYADSVKGRFTISRDNAKNTVYLQMNSLKPEDTAVYYWAASDRYGGRDYWGQGTQVTVSS” was “high polyreactivity”; that for “QVQLVESGGGLVQAGGSLRLSCAASGRTFIYYAMGWYRQAPGKERELVAGITYSVGSTYYADSVKGRFTISRDNEKNTVYLQMNSLKPEDTAVYFCAADATFESDWGQGTQVTVSS” was “low polyreactivity”; that for “QVQLVESGGGLVQAGGSLRLSCAASGRTFIYYAMGWYRQAPGKERELVAVITGGGSTNYADSVKGRFTISRDNAKNTVYLQMNSLKPEDTAVYYCNRDYDASHTSREPLVGYDYWGQGTQVTVSS” was “low polyreactivity”.
